Experimental data taken from patent US20090068202A1 (Genentech, published 2009).
No end group written: not given here.

Key:
[1] = target: T1, extracellular domain of human CD79b (huCD79becd) (human, UniProt P40259 29-159); test: Biacore surface plasmon resonance; huCD79becd immobilized on CM5 chip, IgG injected
T1 construct: Expressed in CHO cells
T1 sequence: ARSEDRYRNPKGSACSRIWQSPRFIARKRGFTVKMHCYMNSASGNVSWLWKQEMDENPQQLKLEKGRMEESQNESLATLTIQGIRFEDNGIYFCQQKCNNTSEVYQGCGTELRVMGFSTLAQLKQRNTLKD
Procedure: (§1) Binding of Fab and IgG variants of ch2F2, the 2F2-grafted “humanized” antibody (hu2F2 graft) or 2F2-grafted “humanized” antibody variant 7 (hu2F2.D7) to immobilized huCD79becd or CD79b-Fc or the 16 amino acid peptide containing the epitope for 2F2 was measured by surface plasma resonance. Affinity determinations were performed by surface plasmon resonance using a BIAcore™-2000. The antigen, huCD79becd or huCD79b-Fc was immobilized (approximately 50-200 RU) in 10 mM sodium acetate pH 4.8 on a CM5 sensor chip. In experiments that measured binding to the 16 amino acid peptide ([…]) (SEQ ID NO: 78) containing the epitope (amino acids 1-11 of SEQ ID NO: 78) for 2F2, the biotinylated peptide was captured (approximately 20 RU) on a streptavidin coated sensor chip. Purified 2F2-grafted “humanized” antibody variant (as Fab or IgG) (a 2-fold serial dilution of 0.5 to 1000 nM in PBST) was injected at a flow rate of 30 μL/min. Each sample was analyzed with 4-minute association and 10-minute disassociation. After each injection the chip was regenerated using 10 mM Glycine pH 1.7.
(§2) Binding response was corrected by subtracting a control flow cell from 2F2-grafted “humanized” antibody variant (as Fab or IgG) flow cells. A 1:1 Languir model of simultaneous fitting of kₒₙ and koff was used for kinetics analysis.

[2] = target: T2, extracellular domain of human CD79b fused to Fc (huCD79becd-Fc) (human, UniProt P40259 29-159); test: Biacore surface plasmon resonance; huCD79becd-Fc immobilized on CM5 chip, IgG injected
T2 construct: Expressed in CHO cells; also called huCD79b-Fc; CD79b-Fc
T2 sequence: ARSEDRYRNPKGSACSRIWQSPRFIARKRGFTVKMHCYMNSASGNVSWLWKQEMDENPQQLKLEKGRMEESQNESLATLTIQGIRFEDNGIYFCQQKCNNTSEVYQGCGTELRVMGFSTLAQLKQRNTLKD
Procedure: as §1, §2

[3] = target: T3, 16 amino acid peptide (ARSEDRYRNPKGSACK) containing the epitope for 2F2 (human, also: biotinylated, site not given here); test: Biacore surface plasmon resonance; biotinylated peptide captured on streptavidin chip, IgG injected; the sheet names the antigen '15mer peptide', legend and text name only the 16mer peptide (SEQ ID NO: 78)
T3 construct: Synthetic peptide; Captured as biotinylated peptide on a streptavidin sensor chip; also called 16mer peptide; test peptide
T3 peptide: ARSEDRYRNPKGSACK
Procedure: as §1, §2

[4] = target: T4, human CD79b on BJAB cells (human, UniProt P40259 29-229); test: Scatchard analysis, I-125 tracer competed by unlabeled IgG on BJAB cells stably expressing cynomolgus CD79b and endogenous human CD79b; ch2F2 IgG; BJAB cells stably expressing cynomolgus CD79b and endogenous human CD79b
T4 construct: Endogenous CD79b of BJAB cells; also called PRO36249; endogenous human-CD79b
T4 sequence: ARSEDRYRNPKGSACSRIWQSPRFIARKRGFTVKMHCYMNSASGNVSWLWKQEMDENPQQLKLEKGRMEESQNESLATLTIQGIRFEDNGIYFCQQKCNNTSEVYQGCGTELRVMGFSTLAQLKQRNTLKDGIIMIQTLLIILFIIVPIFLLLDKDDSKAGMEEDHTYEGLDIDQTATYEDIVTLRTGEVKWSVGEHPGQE
Procedure: (§3) To further determine binding of the IgG variants of the 2F2-graft “humanized” antibody variant 7 (hu2F2.D7) having changes in HVR-L3, binding of iodinated anti-CD79b (with the same epitope as ch2F2) to BJAB cells expressing human CD79b and cynomologous CD79b using competition with unlabeled ch2F2 was analyzed and Scatchard analysis was performed.
(§4) For Scatchard analysis, 0.5 nM I¹²⁵ labeled anti-human CD79b with the same epitope as ch2F2 or 0.5 nM I¹²⁵ labeled 2F2-graft “humanized” antibody variant 7 (hu2F2.D7) was competed against unlabeled ch2F2 or hu2F2.D7, respectively, ranging from 50 to 0.02 nM (12 step 1:2 serial dilution) in the presence of a transfected BJAB line stably expressing cynomologous-CD79b and endogenous human-CD79b. After a four hour incubation at 4° C., cells were washed and cell pellet counts were read by a gamma counter (1470 WIZARD Automatic Gamma Counter; Perkin Elmer, Walthem, Mass.). All points were done in triplicate and counted for 10 minutes. The average CPM was used for Kd calculation using the New Ligand (Genentech, South San Francisco, Calif.) program.

[5] = target: T1, extracellular domain of human CD79b …; test: Biacore surface plasmon resonance; huCD79becd immobilized on CM5 chip, Fab injected
Procedure: as §1, §2

[6] = target: T3, 16 amino acid peptide …; test: Biacore surface plasmon resonance; biotinylated 16mer peptide captured on streptavidin chip, IgG injected
Procedure: as §1, §2

[7] = target: T4, human CD79b on BJAB cells; test: Scatchard analysis, I-125 hu2F2.D7 competed by unlabeled hu2F2.D7 IgG on BJAB cells stably expressing cynomolgus CD79b and endogenous human CD79b; hu2F2.D7 reformatted as IgG; BJAB cells stably expressing cynomolgus CD79b and endogenous human CD79b
Procedure: as §3, §4

Binder | Kd [1] [nM] | Kd [2] [nM] | Kd [3] [nM] | Kd [4] [nM] | Kd [5] [nM] | Kd [6] [nM] | Kd [7] [nM]
chimeric 2F2 antibody (ch2F2) IgG1 (antibody, V domains shown) VH: QVQLQQPGAELVRPGASVKLSCKASGYTFTSYWMNWVKQRPGQGLEWIGMIDPSDSETHYNHIFKDKATLTVDKSSSTAYLQLSSLTSEDSAVYYCARNLYLWGQGTSVTVSL VL: not shown | 1.4 | 2.7 | 2 | 0.99 | – | – | –
hu 2F2.D7 (Fab column) (Fab, V domains shown, also called 2F2-grafted humanized antibody variant 7 as purified Fab; copies: 1 + 1) VH: EVQLVESGGGLVQPGGSLRLSCAASGYTFTSYWMNWVRQAPGKGLEWVGMIDPSDSETHYNHIFKDRFTISADTSKNTAYLQMNSLRAEDTAVYYCARNLYLWGQGTLVTVSS VL: DIQMTQSPSSLSASVGDRVTITCKSSQSLLDSDGKTYLNWYQQKPGKAPKLLIYLVSKLDSGVPSRFSGSGSGTDFTLTISSLQPEDFATYYCFQGTHFPFTFGQGTKVEIKR | – | – | – | – | 68 | – | –
2F2-grafted "humanized" antibody variant 7 (hu2F2.D7), reformatted as IgG (antibody, V domains shown, also called humanized 2F2.D7) VH: EVQLVESGGGLVQPGGSLRLSCAASGYTFTSYWMNWVRQAPGKGLEWVGMIDPSDSETHYNHIFKDRFTISADTSKNTAYLQMNSLRAEDTAVYYCARNLYLWGQGTLVTVSS VL: DIQMTQSPSSLSASVGDRVTITCKSSQSLLDSDGKTYLNWYQQKPGKAPKLLIYLVSKLDSGVPSRFSGSGSGTDFTLTISSLQPEDFATYYCFQGTHFPFTFGQGTKVEIKR | 3.9 | – | – | – | – | 2.7 | 2
